Columns and labels:
[1] = biological target: recombinant glutathione S-transferase (GST) NudE (UniProt Q9CZA6); test: pull-down; 1 ug/ul GST-NudE or GST-CC1 with glutathione agarose 4B and pre-cleared whole brain lysate of P0 wild-type or Loa/Loa mice; phosphate-glutamate buffer (10 mM sodium phosphate, 100 mM sodium glutamate, pH 7.0, 1 mM MgSO4, 1 mM EDTA, 1 mM DTT, 0.2% NP-40), 4°C, 2 hours; western blot of supernatants and pellets
[2] = biological target: GST-tagged CC1 fragment from the dynactin subunit p150Glued; test: as above

Sequence of UniProt Q9CZA6 (Q9CZA6 whole entry, the tested form may be a part): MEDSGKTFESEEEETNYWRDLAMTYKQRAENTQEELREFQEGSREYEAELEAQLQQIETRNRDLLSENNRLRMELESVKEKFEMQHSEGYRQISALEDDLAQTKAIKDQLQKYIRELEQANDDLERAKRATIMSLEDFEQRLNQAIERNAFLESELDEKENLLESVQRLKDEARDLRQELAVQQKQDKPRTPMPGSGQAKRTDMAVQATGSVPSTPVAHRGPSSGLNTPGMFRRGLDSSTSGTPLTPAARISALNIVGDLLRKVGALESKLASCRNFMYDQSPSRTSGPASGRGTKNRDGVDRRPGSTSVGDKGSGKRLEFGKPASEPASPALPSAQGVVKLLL

wild-type cytoplasmic dynein (from UniProt Q9JHU4 1-4644; O88485 1-628) (complex)
percent of heavy chain in the NudE pellet [1]: 66.2% | percent of heavy chain in the pellet [2]: 45.3%

Loa/Loa mutant cytoplasmic dynein (from UniProt Q9JHU4 1-4644; O88485 1-628) (complex)
percent of heavy chain in the NudE pellet [1]: 57.7% | percent of heavy chain in the pellet [2]: 40.7%
